Residue numbers refer to the chain shown, from its start.
T1: Interleukin 10 receptor alpha chain, Fc fusion (human, UniProt Q13651 22-235)
T1 sequence: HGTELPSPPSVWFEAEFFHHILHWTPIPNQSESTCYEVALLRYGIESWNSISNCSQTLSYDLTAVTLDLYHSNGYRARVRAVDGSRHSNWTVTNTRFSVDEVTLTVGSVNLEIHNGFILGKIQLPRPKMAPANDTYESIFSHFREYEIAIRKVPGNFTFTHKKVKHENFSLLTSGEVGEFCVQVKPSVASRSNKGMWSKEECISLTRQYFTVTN

B1: cluster 1 Mutant 1 (ssRNA)
RNA: GGGAGAGAGGAAGAGGGAUGGGUAACACUCGAUUCUCCUAGCCCUCUAGAAAUUCCCCUCCCCGACGACUCGCUGAGAUCGAGA
modifications: DuraScribe IVT transcript (2'-F pyrimidines implied by the kit, not stated)
B2: cluster 1 Mutant 2 (ssRNA)
RNA: B1 RNA with G41U, U45G
modifications: DuraScribe IVT transcript (2'-F pyrimidines implied by the kit, not stated)

Assays:
[1] = target: T1, Interleukin 10 receptor alpha chain, Fc …; assay: double filter binding; text: mutant with highest change in affinity; Fig 3D legend gives that to Mutant 2; Binding buffer (composition and pH not given), 37 C, 5' 32P RNA with a range of protein concentrations, nitrocellulose/nylon double filter; Kd = protein concent
[2] = target: T1, Interleukin 10 receptor alpha chain, Fc …; assay: double filter binding; improved relative to cluster 1 seed; Binding buffer (composition and pH not given), 37 C, 5' 32P RNA with a range of protein concentrations, nitrocellulose/nylon double filter; Kd = protein concent

Binder | Kd [1] [nM] | binding result [2]
B1 | 27 | –
B2 | – | binds
